From PMC2719252 come the findings set out here.

By stoichiometry N is commonly meant the number of molecules, sites or subunits per partner or assembly.

This experiment deals with hexa-His-β6 bundlin (soluble, recombinant WT β6 bundlin) (enteropathogenic Escherichia coli (EPEC) strain RN587/1). The experiment is described as follows: native MS.

With “hexa-His-β6 bundlin (soluble, recombinant WT β6 bundlin) (natural protein)”, the stoichiometry N was 2.
